This passage reports NF-κB-dependent luciferase reporter gene in 293 cells, ligand-independent results from US6280955.

The experiment deals with IL-1RI (cell surface IL-1 receptor) (Homo sapiens (Human)) (UniProt P14778).

Take “epitope-tagged IL-1RAcP (amino-terminal FLAG fusion, full length, transiently expressed from pFlag-CMV-1) (receptor)”: the NF-κB-dependent luciferase reporter gene in 293 cells, ligand-independent was determined as 20 fold.
